Experimental data taken from US20230250156A1.
“And” between values parts separate entries of the source, which are not always exact repeats. Equal entries are not always repeated.

Biological target: SARS-CoV-2 RBD protein (SARS-CoV-2) (UniProt P0DTC2)

## ACE2 Ig-TD Quad (ACE2(18-615) Ig-TD) (Fc fusion)
  IC50: 450 pM and 449 pM
